Assay results as given in US20240116985A1, “STAPLED PEPTIDES AND METHODS THEREOF” (priority 2020, published 2024).
Starred links: 1 amine or outer side, 2 acyl side, 3 side chain; linkers in the order of their positions; H or OH if unused. Positions of bridges follow the written chain, without caps; N, C: chain ends. Non-standard residues stand in square brackets, D forms with d. Primed or numbered codes have the meaning given here. *: point of attachment. PyrS2″ = (S)-3-amino-1-((pent-4-en-1-yloxy)carbonyl)pyrrolidine-3-carboxylic acid (stapling residue), C=CCCCOC(=O)N1CC[C@@](N[*:1])(C(=O)[*:2])C1; Tf = trifluoromethylsulfonyl on Dap side-chain N ([Tf]Dap = (S)-2-amino-3-((trifluoromethyl)sulfonamido)propanoic acid), O=S(=O)(C(F)(F)F)*; B5(16) = 2-amino-2-(pent-4-en-1-yl)hept-6-enoic acid = 2,2-bis(4-pentenyl)glycine (stitching residue), C=CCCCC(CCCC=C)(N[*:1])C(=O)[*:2]; B5(4) = 2,2-bis(4-pentenyl)glycine = 2-amino-2-(pent-4-en-1-yl)hept-6-enoic acid (stitching residue), C=CCCCC(CCCC=C)(N[*:1])C(=O)[*:2]; TfeGA = (S)-2-amino-3-((carboxymethyl)(2,2,2-trifluoroethyl)amino)propanoic acid, O=C([C@H](CN(CC(=O)[*:3])CC(F)(F)F)N[*:1])[*:2]; B5(25) = 2-amino-2-(pent-4-en-1-yl)hept-6-enoic acid (stitching residue), C=CCCCC(CCCC=C)(N[*:1])C(=O)[*:2]; EtGA = (S)-2-amino-3-((carboxymethyl)(ethyl)amino)propanoic acid, CCN(CC(=O)[*:3])C[C@H](N[*:1])C(=O)[*:2]; B5(3) = 2,2-bis(4-pentenyl)glycine (stitching residue), C=CCCCC(CCCC=C)(N[*:1])C(=O)[*:2]; Phe(2-Cl) = N[C@@H](Cc1ccccc1Cl)C(=O)O; Bta = N[C@@H](Cc1csc2ccccc12)C(=O)O; αAllylPro = C=CC[C@@]1(C(=O)O)CCCN1; tBuAla = CC(C)(C)C[C@H](N)C(=O)O; 3Thi = N[C@@H](Cc1ccsc1)C(=O)O; Cha = N[C@@H](CC1CCCCC1)C(=O)O; Cit = NC(=O)NCCC[C@H](N)C(=O)O; S8 = C=CCCCCCC[C@](C)(N)C(=O)O; hSer = N[C@@H](CCO)C(=O)O; Dap = NC[C@H](N)C(=O)O

B1: I-967 (peptide)
peptide: Ac-[αAllylPro]D[tBuAla][B5(25)]D[EtGA]AAFS[PyrS2″][3Thi][Bta]Q-NH2
modifications: staple 1-4, 4-11; not fully specified; printed as Ac-PL3-Asp-Npg-B5-Asp-EtGA-Ala-Ala-Phe-Ser-PyrS2-3Thi-BztA-Gln-NH2
B2: I-969 (peptide)
peptide: Ac-[αAllylPro]D[tBuAla][B5(25)]D[EtGA]AAFT[PyrS2″][3Thi][Bta]Q-NH2
modifications: staple 1-4, 4-11; not fully specified; printed as Ac-PL3-Asp-Npg-B5-Asp-EtGA-Ala-Ala-Phe-Thr-PyrS2-3Thi-BztA-Gln-NH2

Biological target: full-length beta-Catenin (Uniprot ID P35222) (Homo sapiens (Human)) (UniProt P35222)
Assay: fluorescence polarization competition; full-length beta-catenin, competitor probe 5FAM-TCF4(10-53)
Target sequence in this assay (P35222 2-781 limits assumed): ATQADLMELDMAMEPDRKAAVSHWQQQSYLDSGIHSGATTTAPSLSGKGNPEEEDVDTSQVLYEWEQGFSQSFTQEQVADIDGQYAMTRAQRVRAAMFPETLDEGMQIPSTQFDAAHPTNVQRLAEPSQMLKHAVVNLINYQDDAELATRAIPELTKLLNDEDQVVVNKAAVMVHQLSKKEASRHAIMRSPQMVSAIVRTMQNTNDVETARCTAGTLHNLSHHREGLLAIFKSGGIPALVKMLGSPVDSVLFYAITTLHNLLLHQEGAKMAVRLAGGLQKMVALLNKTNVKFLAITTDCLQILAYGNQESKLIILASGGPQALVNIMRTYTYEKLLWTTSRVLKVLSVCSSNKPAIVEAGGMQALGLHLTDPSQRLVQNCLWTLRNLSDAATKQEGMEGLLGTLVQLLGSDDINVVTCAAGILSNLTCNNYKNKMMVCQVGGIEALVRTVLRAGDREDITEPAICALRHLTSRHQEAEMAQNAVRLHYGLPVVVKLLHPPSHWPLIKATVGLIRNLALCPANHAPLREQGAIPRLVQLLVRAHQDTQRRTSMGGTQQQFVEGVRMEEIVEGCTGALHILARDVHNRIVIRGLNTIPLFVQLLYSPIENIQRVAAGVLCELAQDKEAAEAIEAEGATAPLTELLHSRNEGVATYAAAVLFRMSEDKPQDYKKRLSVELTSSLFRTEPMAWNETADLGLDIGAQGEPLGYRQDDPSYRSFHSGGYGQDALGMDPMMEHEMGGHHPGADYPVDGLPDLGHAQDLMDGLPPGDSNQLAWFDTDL

Row | Binder | IC50
1 | Ac-[αAllylPro]D[tBuAla][B5(3)]D[TfeGA]AAFF[PyrS2″][Phe(2-Cl)][Bta]T-NH2 (staple 1-4, 4-11) [I-991] | 51 nM
2 | Ac-[αAllylPro]D[tBuAla][B5(3)]D[TfeGA]AAFF[PyrS2″][Phe(2-Cl)][Bta][hSer]-NH2 (staple 1-4, 4-11) [I-992] | 59 nM
3 | Ac-[αAllylPro]D[tBuAla][B5(3)]D[TfeGA]AAFS[S8][Phe(2-Cl)][Bta]Q-NH2 (staple 1-4, 4-11) [I-995] | 55 nM

Biological target: full-length beta-Catenin (Uniprot ID P35222) (Homo sapiens (Human)) (UniProt P35222)
Assay: fluorescence polarization competition; full-length beta-catenin with 5FAM-labeled TCF4 (10-53) probe as competitor
Target sequence in this assay (P35222 whole entry): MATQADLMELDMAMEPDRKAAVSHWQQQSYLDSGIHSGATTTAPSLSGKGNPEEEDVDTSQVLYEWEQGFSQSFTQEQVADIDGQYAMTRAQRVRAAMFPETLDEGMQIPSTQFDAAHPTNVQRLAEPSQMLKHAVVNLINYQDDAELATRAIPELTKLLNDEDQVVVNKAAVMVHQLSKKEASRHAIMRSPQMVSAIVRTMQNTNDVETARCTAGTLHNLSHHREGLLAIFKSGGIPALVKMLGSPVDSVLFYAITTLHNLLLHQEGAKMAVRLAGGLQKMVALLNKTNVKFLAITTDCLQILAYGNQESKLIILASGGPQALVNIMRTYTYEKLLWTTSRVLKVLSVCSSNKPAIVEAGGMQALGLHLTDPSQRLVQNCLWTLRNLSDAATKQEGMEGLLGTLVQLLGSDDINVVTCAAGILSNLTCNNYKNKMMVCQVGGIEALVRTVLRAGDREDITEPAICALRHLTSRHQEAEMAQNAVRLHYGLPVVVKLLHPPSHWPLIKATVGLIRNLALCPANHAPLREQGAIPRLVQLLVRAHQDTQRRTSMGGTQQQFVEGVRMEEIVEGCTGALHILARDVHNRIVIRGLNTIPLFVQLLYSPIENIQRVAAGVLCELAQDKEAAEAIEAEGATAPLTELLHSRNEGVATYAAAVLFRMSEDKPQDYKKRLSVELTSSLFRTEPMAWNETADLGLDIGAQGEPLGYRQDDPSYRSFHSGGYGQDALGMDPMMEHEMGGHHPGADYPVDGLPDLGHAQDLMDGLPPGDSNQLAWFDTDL

Row | Binder | EC50
4 | Ac-[αAllylPro]D[tBuAla][B5(25)]D[EtGA]AAFS[PyrS2″][3Thi][Bta]Q-NH2 (staple 1-4, 4-11; also: earlier-eluting HPLC staple isomer) [I-966] | 2020 nM
5 | B1 | 1740 nM
6 | Ac-[αAllylPro]D[tBuAla][B5(25)]D[EtGA]AAFT[PyrS2″][3Thi][Bta]Q-NH2 (staple 1-4, 4-11; also: earlier-eluting HPLC staple isomer) [I-968] | 2980 nM
7 | B2 | 2320 nM
8 | Ac-[αAllylPro]D[tBuAla][B5(4)]D[EtGA]AAFS[PyrS2″][3Thi][Bta]S-NH2 (staple 1-4, 4-11; also: earlier eluting HPLC staple isomer) [I-974] | 1780 nM
9 | Ac-[αAllylPro]D[tBuAla][B5(4)]D[EtGA]AAFS[PyrS2″][3Thi][Bta]S-NH2 (staple 1-4, 4-11; also: later eluting HPLC staple isomer) [I-975] | 1710 nM
10 | Ac-[αAllylPro]D[tBuAla][B5(3)]D[TfeGA]AAFF[PyrS2″][Phe(2-Cl)][Bta]T-NH2 (staple 1-4, 4-11) [I-991] | 51 nM
11 | Ac-[αAllylPro]D[tBuAla][B5(3)]D[TfeGA]AAFF[PyrS2″][Phe(2-Cl)][Bta][hSer]-NH2 (staple 1-4, 4-11) [I-992] | 59 nM
12 | Ac-[αAllylPro]D[tBuAla][B5(3)]D[TfeGA]AAFS[S8][Phe(2-Cl)][Bta]Q-NH2 (staple 1-4, 4-11) [I-995] | 55 nM

Biological target: full-length beta-Catenin (Uniprot ID P35222) (Homo sapiens (Human)) (UniProt P35222)
Assay: fluorescence polarization competition; peptide titrated against 10 nM full-length beta-catenin + 10 nM 5FAM-TCF4(10-53) probe
Target sequence in this assay (P35222 whole entry): as above

Row | Binder | EC50
13 | Ac-[αAllylPro]D[Cha][B5(4)]DEAAFN[S8]F[Bta]-NH2 (staple 1-4, 4-11) [I-626] | 5000 nM
14 | Ac-[αAllylPro]D[Cha][B5(4)]DEAAFN[S8]F[Bta]-NH2 (staple 1-4, 4-11) [I-627] | 338 nM
15 | Ac-[αAllylPro]DL[B5(4)]DEAAF[Cit][S8]F[Bta]-NH2 (staple 1-4, 4-11) [I-628] | 713 nM
16 | Ac-[αAllylPro]DL[B5(16)]DEAAF[Cit][S8]F[Bta]-NH2 (staple 1-4, 4-11; not fully specified; printed as Ac-PL3-Asp-Leu-B5-Asp-Glu-Ala-Ala-Phe-Cit-S8-Phe-BztA-NH2) [I-629] | 685 nM
17 | Ac-[αAllylPro]DI[B5(4)][Dap](Tf)EAAFQ[S8]F[Bta]Q-NH2 (staple 1-4, 4-11) [I-630] | 5000 nM
18 | Ac-[αAllylPro]DI[B5(4)][Dap](Tf)EAAFQ[S8]F[Bta]Q-NH2 (staple 1-4, 4-11) [I-631] | 5000 nM
19 | Ac-[αAllylPro][Dap](Tf)I[B5(4)]DEAAFQ[S8]F[Bta]Q-NH2 (staple 1-4, 4-11) [I-632] | 5000 nM

Biological target: full-length beta-Catenin (Uniprot ID P35222) (Homo sapiens (Human)) (UniProt P35222)
Assay: fluorescence polarization competition vs 5FAM-TCF4(10-53) on full-length beta-catenin
Target sequence in this assay (P35222 2-781 limits assumed): as the sequence (P35222 2-781 limits assumed) above

Row | Binder | IC50
20 | Ac-[αAllylPro]D[tBuAla][B5(25)]D[EtGA]AAFS[PyrS2″][3Thi][Bta]Q-NH2 (staple 1-4, 4-11; also: earlier-eluting HPLC staple isomer) [I-966] | 2020 nM
21 | B1 | 1740 nM
22 | Ac-[αAllylPro]D[tBuAla][B5(25)]D[EtGA]AAFT[PyrS2″][3Thi][Bta]Q-NH2 (staple 1-4, 4-11; also: earlier-eluting HPLC staple isomer) [I-968] | 2980 nM
23 | B2 | 2320 nM
24 | Ac-[αAllylPro]D[tBuAla][B5(4)]D[EtGA]AAFS[PyrS2″][3Thi][Bta]S-NH2 (staple 1-4, 4-11; also: earlier eluting HPLC staple isomer) [I-974] | 1780 nM
25 | Ac-[αAllylPro]D[tBuAla][B5(4)]D[EtGA]AAFS[PyrS2″][3Thi][Bta]S-NH2 (staple 1-4, 4-11; also: later eluting HPLC staple isomer) [I-975] | 2240 nM

Biological target: full-length beta-Catenin (Uniprot ID P35222) (Homo sapiens (Human)) (UniProt P35222)
Assay: fluorescence polarization competition; full-length beta-catenin, competitor 5FAM-TCF4 10-53
Target sequence in this assay (P35222 2-781 limits assumed): as above

Row | Binder | IC50
26 | Ac-[αAllylPro]D[Cha][B5(4)]DEAAFN[S8]F[Bta]-NH2 (staple 1-4, 4-11) [I-626] | 5000 nM
27 | Ac-[αAllylPro]D[Cha][B5(4)]DEAAFN[S8]F[Bta]-NH2 (staple 1-4, 4-11) [I-627] | 338 nM
28 | Ac-[αAllylPro]DL[B5(4)]DEAAF[Cit][S8]F[Bta]-NH2 (staple 1-4, 4-11) [I-628] | 60 nM
29 | Ac-[αAllylPro]DL[B5(16)]DEAAF[Cit][S8]F[Bta]-NH2 (staple 1-4, 4-11; not fully specified; printed as Ac-PL3-Asp-Leu-B5-Asp-Glu-Ala-Ala-Phe-Cit-S8-Phe-BztA-NH2) [I-629] | 36 nM
30 | Ac-[αAllylPro]DI[B5(4)][Dap](Tf)EAAFQ[S8]F[Bta]Q-NH2 (staple 1-4, 4-11) [I-630] | 5000 nM
31 | Ac-[αAllylPro]DI[B5(4)][Dap](Tf)EAAFQ[S8]F[Bta]Q-NH2 (staple 1-4, 4-11) [I-631] | 5000 nM
32 | Ac-[αAllylPro][Dap](Tf)I[B5(4)]DEAAFQ[S8]F[Bta]Q-NH2 (staple 1-4, 4-11) [I-632] | 5000 nM
